In the supplement of paper PMC9170038:

Tested on: MS2 coat protein
Experiment: apparent KD of MS2 coat protein; designed switch direction (-1 OFF switch, 1 ON switch): -1; higher = weaker reporter binding
In short: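 Designed RNA switches with common flanks were transcribed on Illumina chips by stalled E. coli RNA polymerase and titrated with SNAP-549-labelled MS2 coat protein, from 0.7 or 1.5 nM doubling to 3 µM, in Tris-HCl pH 7.5 buffer with KCl, MgCl2, BSA, DTT, tRNA and Tween-20. Steps lasted 0.8–1.5 h (lowest) to 10–20 min (highest). Titrations ran without input, with 200 uM small-molecule ligand, or with an oligonucleotide input. Normalised cluster fluorescence was curve-fitted, and apparent KD is the per-design median over clusters.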

[1] = input ligand: microRNA oligo, concentration not stated
[2] = Eterna round: R95, input ligand: microRNA oligo, concentration not stated
[3] = Eterna round: R95, input ligand: FMN 200 uM
[4] = Eterna round: R95, input ligand: none

## UGCCUAGCAGGAUAUGCCCGGGAUAACAUGAGGAUCACCCAUGUGACCGAUUGAUAUCCUGCAGAAGGGCUAGGGA [JL-EX5-4.10 ViennaUCT mod] (Eterna round: R97, puzzle: Exclusion 5)
Input ligand: FMN 200 uM
  apparent KD of MS2 coat protein: 62.1 nM
Input ligand: none
  apparent KD of MS2 coat protein: 16.7 nM

## GGAAGAGAGAUAGGAUAUCAGAGGAAGAUGGUGAGAGAGACAUGAGGAUCACCCAUGUGAAGGAAUGAGAAGGGUCAGAAGGAA [EXNG2 V2 h] (Eterna round: R96, puzzle: Exclusion NG 2)
Input ligand: FMN 200 uM
  apparent KD of MS2 coat protein: 130 nM
[1]
  apparent KD of MS2 coat protein: 133 nM
Input ligand: none
  apparent KD of MS2 coat protein: 101 nM

## UGUUUAUAUGAAGGAUAUACUUAACAUGAGGAUCACCCAUGUGGUGUUGUGAGUGAGUGAGUUUAGUAGAAGGUCAAUUAUUUU [JMF's solution 31] (Eterna round: R96, puzzle: Exclusion NG 2)
[1]
  apparent KD of MS2 coat protein: 303 nM

## UUUUAGUCAGGAUAUACAUGAGGAUCACCCAUGUAAAAUUUUAAUUUAAUUUGAAGGUGUAGAAGGGACAAUUU [Ex3 #39] (Eterna round: R97, puzzle: Exclusion 3)
Input ligand: FMN 200 uM
  apparent KD of MS2 coat protein: 22.7 nM
Input ligand: none
  apparent KD of MS2 coat protein: 35.8 nM

## ACUAGAUGAGGAUAUGCAUAUUUUCGUGUUCUUCUAGGUUAACAUGAGGAUCACCCAUGUAGAAGGCGUCUAUU [Exclusion 2 - 23] (puzzle: Exclusion 2)
[2]
  apparent KD of MS2 coat protein: 18.6 nM

## AAAAUGCAAGGAUAUACAUAGAUCCGACCUACUUAAAACAAACAUGAGGAUCACCCAUGUAGAAGGUGCCAAAA [Raxerebiti] (puzzle: Exclusion 2)
[3]
  apparent KD of MS2 coat protein: 44.9 nM
[2]
  apparent KD of MS2 coat protein: 23.7 nM
[4]
  apparent KD of MS2 coat protein: 25.5 nM

## UUAAUGAUUGUGAGGAUAUUUGAUAGAUAGAUAUUAGAGAAGGUACAUGAGGAUCACCCAUGUGUGAUUAGAGA [Brourd's EX4 #70] (Eterna round: R97, puzzle: Brourd's mod of Exclusion 4)
Input ligand: FMN 200 uM
  apparent KD of MS2 coat protein: 164 nM
Input ligand: none
  apparent KD of MS2 coat protein: 75.4 nM

## UAAAACGCAGAGGAUAUAUCAGAUCAAAGCUGCAUAGAAGGCUGCACAUGAGGAUCACCCAUGUGGUCUUUAAU [Mat - Exclusion 6 - JL Mod - D1] (Eterna round: R97, puzzle: Exclusion 6)
Input ligand: FMN 200 uM
  apparent KD of MS2 coat protein: 206 nM
Input ligand: none
  apparent KD of MS2 coat protein: 20.6 nM

## UUCAGACAUGAGGAUCACCCAUGUGAGGAUAUGAUGCGAUCGUCGAAAGACGAUAGCAUCAGAAGGCACAAAUG [Fiskers Ex 1 - 18] (puzzle: Exclusion 1)
[2]
  apparent KD of MS2 coat protein: 114 nM

## ACAUUCAGAGGAUAUGCGCAUAGAUAAGACUUUGUUUCUUAACAUGAGGAUCACCCAUGUAGAAGGCUGUACCC [Ex2 #66] (Eterna round: R97, puzzle: Exclusion 2)
Input ligand: FMN 200 uM
  apparent KD of MS2 coat protein: 26.6 nM
Input ligand: none
  apparent KD of MS2 coat protein: 20.9 nM

## AGUACUCACACGAAAGUGUUAGUACAAUAAGCUUGUGAAACAUGAGGAUCACCCAUGUCCUCAUAAGCUCGUCUUAU [salish99_TOv2_r3_018] (Eterna round: R96, puzzle: Sensor v3, turn-off variant 2)
Input ligand: FMN 200 uM
  apparent KD of MS2 coat protein: 16.2 nM
[1]
  apparent KD of MS2 coat protein: 430 nM
Input ligand: none
  apparent KD of MS2 coat protein: 18.1 nM

## GAAGAGACAGGAUAUACAUGAGGAUCACCCAUGUGAGUAAGGUAGAGGCGGAGGAGAUGUAGAAGGGUCAAAGA [JR_Exclu3_Sub016] (puzzle: Exclusion 3)
[3]
  apparent KD of MS2 coat protein: 49.9 nM
[2]
  apparent KD of MS2 coat protein: 35.6 nM
[4]
  apparent KD of MS2 coat protein: 41.5 nM

## AGAGAAUACUCAGGAUAUCUGAAUAGAUAGAGAAGAGAAGGGAGACAUGAGGAUCACCCAUGUGAAGUCUUGAGGCUGCAUGGA [Prohibition 24 - Jieux - Exclusion NG 1] (Eterna round: R96, puzzle: Exclusion NG 1)
Input ligand: FMN 200 uM
  apparent KD of MS2 coat protein: 165 nM
[1]
  apparent KD of MS2 coat protein: 85.6 nM
Input ligand: none
  apparent KD of MS2 coat protein: 209 nM

## CGUAUGUGAGGAUAUGGUCUCGAUGACAUGAGGAUCACCCAUGUAACAUGGGACUUGUGACUAGAAGGCACUAACG [JR_Ex5_Sub023] (Eterna round: R97, puzzle: Exclusion 5)
Input ligand: FMN 200 uM
  apparent KD of MS2 coat protein: 29.1 nM
Input ligand: none
  apparent KD of MS2 coat protein: 17.4 nM

## GUGUAGAGAGGAUAUACAUGAGGAUCACCCAUGUGAAUAAGAUAGAAUAAGAUAAAGUGUAGAAGGUUUAGUGU [Excluse me!!! 18 - Jieux - Exclusion 3] (puzzle: Exclusion 3)
[2]
  apparent KD of MS2 coat protein: 38.4 nM

## GUACUGACAGGAUAUACAUGAGGAUCACCCAUGUGCCUUAUCGCUACAAAAGUAGCGGGUAGAAGGGUCUGUAC [Omei Ex3 Model Bachelor's Dilema v19] (Eterna round: R97, puzzle: Exclusion 3)
Input ligand: FMN 200 uM
  apparent KD of MS2 coat protein: 41.8 nM
Input ligand: none
  apparent KD of MS2 coat protein: 16.4 nM

## AGUACUUUCACGAAAGUGAAAGUACAAAUGAGCUUUUGAACAUGAGGAUCACCCAUGUCCUCAUAAGCUCGUCUUAA [Mat - Sensor v2 - var 2 - Mod - D175] (Eterna round: R96, puzzle: Sensor v2, turn-off variant 2)
Input ligand: FMN 200 uM
  apparent KD of MS2 coat protein: 28.3 nM
[1]
  apparent KD of MS2 coat protein: 458 nM
Input ligand: none
  apparent KD of MS2 coat protein: 30.7 nM

## AAGUACCGUCACGAUAGUGAUGGUACAGCAAGCAAAUGUACAUGAGGAUCACCCAUGUCCUCUUUUGCUCGUCUUAU [Sensor 3 - 98] (puzzle: Sensor v3, turn-off variant 2)
[3]
  apparent KD of MS2 coat protein: 49.1 nM
[2]
  apparent KD of MS2 coat protein: 31.1 nM
[4]
  apparent KD of MS2 coat protein: 53.2 nM

## GGGACCCUUGUAGGAUAUAGAACCGCAGGAGGUCUAGAAGGGCACUGGUCGCCGUGGACAUGAGGAUCACCCAUGUGUUUGCCC [Eternabot solution 36] (Eterna round: R96, puzzle: Exclusion NG 1)
Input ligand: FMN 200 uM
  apparent KD of MS2 coat protein: 55.2 nM
[1]
  apparent KD of MS2 coat protein: 40.2 nM
Input ligand: none
  apparent KD of MS2 coat protein: 52.4 nM

## GUCAGCUCGUGAGGAUAUACAUCACUGCUUCGGCAGUGUAUUAAGAUCACAUGAGGAUCACCCAUGUAGAAGGCACGAGCUGAC [ENG2/2-A1] (Eterna round: R96, puzzle: Exclusion NG 2)
Input ligand: FMN 200 uM
  apparent KD of MS2 coat protein: 309 nM
[1]
  apparent KD of MS2 coat protein: 34 nM
Input ligand: none
  apparent KD of MS2 coat protein: 29.6 nM

## GAAUGAGAGCAGGAUAUCUUAUAAAUGUAUGGAAGAGAAGGGCUCACAUGAGGAUCACCCAUGUGGUCCUAGAU [jl-ex6-4.70 jandersonlee mod] (Eterna round: R97, puzzle: Exclusion 6)
Input ligand: FMN 200 uM
  apparent KD of MS2 coat protein: 215 nM
Input ligand: none
  apparent KD of MS2 coat protein: 36.5 nM

## GAGUACUGAGGAUAUACAUGAGGAUCACCCAUGUGUUCCAGCUAGGAAACUAGCAAAAGUAGAAGGCAGUACUG [salish99_ex3_r3_084] (Eterna round: R96, puzzle: Exclusion 3)
Input ligand: FMN 200 uM
  apparent KD of MS2 coat protein: 311 nM
[1]
  apparent KD of MS2 coat protein: 19.3 nM
Input ligand: none
  apparent KD of MS2 coat protein: 23.2 nM

## GAAGAGACAGGAUAUACAUGAGGAUCACCCAUGUGAGUAUGUUAGAGGCGGAGGAGAUGUAGAAGGGUCAAAGA [JR_Exclu3_Sub017] (puzzle: Exclusion 3)
[3]
  apparent KD of MS2 coat protein: 39.9 nM
[2]
  apparent KD of MS2 coat protein: 19.6 nM
[4]
  apparent KD of MS2 coat protein: 31.6 nM

## CAUUCACAUGAGGAUCACCCAUGUCAGGAUAUAGUCGAUAUAUGGAAACAUAUAUCGACUAGAAGGGACUAGCG [Jieuxxlusion 13 - Jieux - Exclusion 1] (Eterna round: R97, puzzle: Exclusion 1)
Input ligand: FMN 200 uM
  apparent KD of MS2 coat protein: 152 nM
Input ligand: none
  apparent KD of MS2 coat protein: 52.6 nM

## CUGUUUUUCGCAGGAUAUGCUUCUCCUUUAUUAGCAGAAGGGCGUUAAACAUGAGGAUCACCCAUGUAUGGUAAUGAUAUUUUC [JR_ExcNG1_Sub060] (Eterna round: R96, puzzle: Exclusion NG 1)
Input ligand: FMN 200 uM
  apparent KD of MS2 coat protein: 145 nM
[1]
  apparent KD of MS2 coat protein: 52.3 nM
Input ligand: none
  apparent KD of MS2 coat protein: 55.8 nM

## AGAAGUAGGAACCGAUCCUACAUGAGGAUCACCCAUGUAGCAAGACGUGCACGCGAAGCUCGUCAGACUACCAGAUG [salish99_TOv1_r3_021] (puzzle: Sensor v3, turn-off variant 1)
[3]
  apparent KD of MS2 coat protein: 558 nM
[2]
  apparent KD of MS2 coat protein: 399 nM
[4]
  apparent KD of MS2 coat protein: 531 nM

## GGCGACCUAGGAUAUACAUGAGGAUCACCCAUGUUUAUCUAAUAGAUGAAGACGGGUUGUAGAAGGAGGAAAAU [Geriin] (puzzle: Exclusion 3)
[2]
  apparent KD of MS2 coat protein: 13.1 nM

## GCACGGAUGGUAGGAUAUCAUUGCGAUUAGCUAUGAGAAGGACCACAUGAGGAUCACCCAUGUCCUCUAAUUAGCCUUCCGUGC [Eli exng1 - 016] (Eterna round: R96, puzzle: Exclusion NG 1)
[1]
  apparent KD of MS2 coat protein: 156 nM

## CUCCUCAUGGCGCCUAAACACAUGAGGAUCACCCAUGUACAGGCUUUUUGCCGUCUUAUAAUAAAACCGAGGAGGCG [Atrelele] (puzzle: Sensor v3, turn-off variant 1)
[3]
  apparent KD of MS2 coat protein: 21 nM
[2]
  apparent KD of MS2 coat protein: 146 nM
[4]
  apparent KD of MS2 coat protein: 23.6 nM

## AUUGAUAGCACAGGAUAUUGAGAUUUGAAUUGACAAGAAGGGUGUACAUGAGGAUCACCCAUGUAAUGGUUGCCUCGUUGAUUA [JR_ExcNG1_Sub004] (Eterna round: R96, puzzle: Exclusion NG 1)
Input ligand: FMN 200 uM
  apparent KD of MS2 coat protein: 1070 nM
[1]
  apparent KD of MS2 coat protein: 125 nM
Input ligand: none
  apparent KD of MS2 coat protein: 148 nM

## GAGAAAUGUGUUAGGAUAUCCCGCUAAAGCAGAUAGGAGAAGGAACAUGAGGAUCACCCAUGUAGGGAGGGCCA [Eternabot (Original) Solution 17] (Eterna round: R97, puzzle: Brourd's mod of Exclusion 4)
Input ligand: FMN 200 uM
  apparent KD of MS2 coat protein: 192 nM
Input ligand: none
  apparent KD of MS2 coat protein: 67 nM

## UUUUUUGUUUUUUUUACAAGCUUUUUGCUCGUCUUAUUAACAUGAGGAUCACCCAUGUCAAAGAGACCUCAUGUAUU [Sensor v3 - turn-off variant 2 - 1] (puzzle: Sensor v3, turn-off variant 2)
[3]
  apparent KD of MS2 coat protein: 91.2 nM
[2]
  apparent KD of MS2 coat protein: 15.7 nM
[4]
  apparent KD of MS2 coat protein: 207 nM

## AAAACGGCAGGAUAUCGGAACAAUGACAUGAGGAUCACCCAUGUGAUCGUUUCACUUGGCCGAGAAGGGCCAAAAU [Xeinbelele] (puzzle: Exclusion 5)
[3]
  apparent KD of MS2 coat protein: 54.6 nM
[2]
  apparent KD of MS2 coat protein: 18.6 nM
[4]
  apparent KD of MS2 coat protein: 17.4 nM
